This is an account of results in article PMC5385372.

The experiment concerns the target sGFP-foldon. The experiment is described as follows: single-molecule fluorescence brightness analysis; GFP-fused proteins expressed in LTE (2-3 h, 27 °C), diluted about 10 times in buffer A (25 mM HEPES, 50 mM NaCl), 1-100 nanomolar, freely diffusing through a confocal volume, room temperature; also with serial dilution of the plasmid to vary the final expression level.

Sequence of sGFP-foldon (P10104 2-487): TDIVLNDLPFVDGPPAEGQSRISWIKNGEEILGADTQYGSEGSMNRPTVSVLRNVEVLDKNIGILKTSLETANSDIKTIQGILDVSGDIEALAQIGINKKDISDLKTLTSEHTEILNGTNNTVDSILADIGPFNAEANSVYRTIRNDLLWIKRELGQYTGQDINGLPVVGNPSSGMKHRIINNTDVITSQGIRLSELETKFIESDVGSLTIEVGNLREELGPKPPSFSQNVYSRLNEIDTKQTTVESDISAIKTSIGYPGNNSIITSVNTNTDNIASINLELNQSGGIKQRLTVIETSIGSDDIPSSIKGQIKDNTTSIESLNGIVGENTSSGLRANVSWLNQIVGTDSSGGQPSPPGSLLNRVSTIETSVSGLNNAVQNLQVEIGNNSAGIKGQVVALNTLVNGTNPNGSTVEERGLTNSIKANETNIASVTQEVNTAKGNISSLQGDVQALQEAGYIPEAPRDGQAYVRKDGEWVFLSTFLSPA

One may read the stoichiometry N as a count of units in the complex or per binding partner. sGFP-foldon (domain or fragment) gave a stoichiometry N of 3.
